This is an account of results in patent US7384761 (RIGEL PHARMACEUTICALS, dated 2008).

For data set [1], the target named is T1, Rad9.
T1 chain: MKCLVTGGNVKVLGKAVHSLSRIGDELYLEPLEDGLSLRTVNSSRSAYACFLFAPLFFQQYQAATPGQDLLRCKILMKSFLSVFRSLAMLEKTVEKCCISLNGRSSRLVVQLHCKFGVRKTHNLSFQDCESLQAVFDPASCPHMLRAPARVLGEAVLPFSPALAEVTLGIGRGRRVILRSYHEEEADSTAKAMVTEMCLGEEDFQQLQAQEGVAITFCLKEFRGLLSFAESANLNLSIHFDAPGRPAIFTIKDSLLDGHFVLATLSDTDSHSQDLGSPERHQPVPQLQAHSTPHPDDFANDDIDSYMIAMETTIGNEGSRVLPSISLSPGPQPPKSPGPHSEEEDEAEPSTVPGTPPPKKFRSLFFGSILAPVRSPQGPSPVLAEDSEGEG

In data set [2] the target is T2, protein phosphatase 5 (PP5) (Homo sapiens (Human), UniProt P53041 1-499, limits assumed).
T2 construct: Wildtype PP5; also called protein phosphatase type 5; cell cycle protein
T2 sequence: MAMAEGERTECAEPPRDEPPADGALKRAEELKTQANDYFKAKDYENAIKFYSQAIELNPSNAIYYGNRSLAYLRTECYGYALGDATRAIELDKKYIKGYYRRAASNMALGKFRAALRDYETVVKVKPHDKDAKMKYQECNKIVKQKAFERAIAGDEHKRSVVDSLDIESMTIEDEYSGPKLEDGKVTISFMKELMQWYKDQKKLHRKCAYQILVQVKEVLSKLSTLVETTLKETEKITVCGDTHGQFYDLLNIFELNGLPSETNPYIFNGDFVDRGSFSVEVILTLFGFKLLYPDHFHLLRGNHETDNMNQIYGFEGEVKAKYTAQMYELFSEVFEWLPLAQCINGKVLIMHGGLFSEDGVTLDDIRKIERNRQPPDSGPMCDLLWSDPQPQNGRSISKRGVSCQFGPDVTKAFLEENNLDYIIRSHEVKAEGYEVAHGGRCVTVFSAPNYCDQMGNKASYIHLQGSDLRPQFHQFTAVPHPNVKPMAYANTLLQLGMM
Kind of data set: coimmunoprecipitation, gel.

B1: protein phosphatase 5 (PP5) (protein)
chain: T2 sequence
Regarding B1, in data set [1], the “dephosphorylation of Rad9” value is recorded as “cotransfection of PP5 with Rad9 in HeLa cells leads to dephosphorylation of Rad9 which is dependent on phophatase activity of PP5” and the “dephosphorylation of Rad9 in vitro” value is recorded as “PP5 dephosphorylates Rad9 directly in vitro”.

B2: Rad9 (other)
chain: T1 chain
notes: also called human Rad9
For B2, the binding result in data set [2] is “binds”.
